From US20130244255A1 (published 2013)

Tests used:
[1] = target: T1, GPNMB (CG56972) as expressed by human cell lines (human, UniProt Q14956 23-492); assay: FACS on EOL-1 cells, antibody 1 ug/mL
T1 construct: Endogenous or transfected full-length protein on cells (FACS, killing assays) or in cell lysates (immunoprecipitation, blot); also called native GPNMB protein
T1 sequence: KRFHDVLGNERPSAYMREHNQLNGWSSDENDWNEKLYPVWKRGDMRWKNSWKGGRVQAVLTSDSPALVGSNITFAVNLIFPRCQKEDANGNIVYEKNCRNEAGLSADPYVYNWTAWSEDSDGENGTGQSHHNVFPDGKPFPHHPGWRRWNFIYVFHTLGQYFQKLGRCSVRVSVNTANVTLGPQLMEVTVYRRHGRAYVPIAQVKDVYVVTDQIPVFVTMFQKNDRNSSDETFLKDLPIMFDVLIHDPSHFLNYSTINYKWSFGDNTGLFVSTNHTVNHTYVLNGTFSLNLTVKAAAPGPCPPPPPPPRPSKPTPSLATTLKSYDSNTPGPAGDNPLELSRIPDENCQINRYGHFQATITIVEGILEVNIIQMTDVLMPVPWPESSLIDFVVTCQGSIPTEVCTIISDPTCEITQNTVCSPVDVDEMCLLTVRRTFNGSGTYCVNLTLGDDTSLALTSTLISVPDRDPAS

[2] = target: T1, GPNMB (CG56972) as expressed by human …; assay: FACS on RPMI-7951 cells
[3] = target: T1, GPNMB (CG56972) as expressed by human …; assay: FACS on T98G cells, CR011 10 ug/mL
Description: (§1) Quantitative analysis of CG56972 expression on the surface of cell lines was determined by flow cytometry (FACS). […] Cells were fixed in 1% paraformaldehyde/PBS and examined on a Becton Dickinson FACSCalibur flow cytometer. Data analysis was performed with Becton Dickinson Cell Quest software version 3.3 and the geometric mean fluorescence intensity ratio (GMR) was determined for each cell type.

[4] = target: T1, GPNMB (CG56972) as expressed by human …; assay: FACS on XF-498, U-118-MG, SNB-78 and SF-539 cells
Description: as §1

[5] = target: T1, GPNMB (CG56972) as expressed by human …; assay: FACS on SU-DHL-4 cells, antibody 1 ug/mL
[6] = target: T1, GPNMB (CG56972) as expressed by human …; assay: FACS on SU-DHL-1 cells, antibody 1 ug/mL
Description: (§2) Lymphoma or leukemia derived cells were washed twice with ice-cold FACS buffer and resuspended at 1 million cells per assay tube. […] Cells were then washed 2-3 times and resuspended in 1 mL of ice-cold FACS buffer. R-PE-conjugated goat anti-human antibody at 1:100 dilution was added and cells were incubated on ice for 30 min. Cells were washed 3 times with 1 mL of ice-cold FACS buffer, fixed with 0.5-1 mL of 1% formaldehyde in PBS and analyzed by Flow Cytometry.

[7] = target: T1, GPNMB (CG56972) as expressed by human …; assay: FACS on D534-MG cells, CR011 10 ug/mL
Description: as §1

[8] = target: T1, GPNMB (CG56972) as expressed by human …; assay: FACS on UACC-257 cells
[9] = target: T1, GPNMB (CG56972) as expressed by human …; assay: FACS on U937 cells, antibody 1 ug/mL
Description: as §2

[10] = target: T1, GPNMB (CG56972) as expressed by human …; assay: FACS on HUT-78 cells, antibody 1 ug/mL
[11] = target: T1, GPNMB (CG56972) as expressed by human …; assay: FACS on KG-1 cells, antibody 1 ug/mL
Description: as §2

[12] = target: T1, GPNMB (CG56972) as expressed by human …; assay: FACS on SF-295 cells, CR011 10 ug/mL
Description: as §1

[13] = target: T1, GPNMB (CG56972) as expressed by human …; assay: FACS on SK-Mel 24 cells
[14] = target: T1, GPNMB (CG56972) as expressed by human …; assay: FACS on SK-N-SH cells, CR011 10 ug/mL
Description: as §1

[15] = target: T1, GPNMB (CG56972) as expressed by human …; assay: FACS on G361 cells
[16] = target: T1, GPNMB (CG56972) as expressed by human …; assay: FACS on SK-Mel 2 cells
[17] = target: T1, GPNMB (CG56972) as expressed by human …; assay: FACS on MEWO cells
[18] = target: T1, GPNMB (CG56972) as expressed by human …; assay: FACS on A2058 cells
[19] = target: T1, GPNMB (CG56972) as expressed by human …; assay: FACS on U-251 cells, CR011 10 ug/mL
Description: as §1

[20] = target: T1, GPNMB (CG56972) as expressed by human …; assay: cell-based or functional assay
[21] = target: T1, GPNMB (CG56972) as expressed by human …; assay: FACS on LOXIMVI cells
[22] = target: T1, GPNMB (CG56972) as expressed by human …; assay: FACS on SF-268 cells, CR011 10 ug/mL
Description: as §1
Geometric Mean ratios (GMR) were determined by flow cytometric analysis.

[23] = target: T1, GPNMB (CG56972) as expressed by human …; assay: FACS on Karpas 299 cells, antibody 1 ug/mL
Description: as §2

[24] = target: T1, GPNMB (CG56972) as expressed by human …; assay: FACS on AML-193 cells, antibody 1 ug/mL

B1: CR011 mAb 1.15.1 (IgG2) (antibody)
heavy: QVQLQESGPGLVKPSQTLSLTCTVSGGSISSFNYYWSWIRHHPGKGLEWIGYIYYSGSTYSNPSLKSRVTISVDTSKNQFSLTLSSVTAADTAVYYCARGYNWNYFDYWGQGTLVTVSSASTKGPSVFPLAPCSRSTSESTAALGCLVKDYFPEPVTVSWNSGALTSGVHTFPAVLQSSGLYSLSSVVTVPSSNFGTQTYTCNVDHKPSNTKVDKTVERKCCVECPPCPAPPVAGPSVFLFPPKPKDTLMISRTPEVTCVVVDVSHEDPEVQFNWYVDGVEVHNAKTKPREEQFNSTFRVVSVLTVVHQDWLNGKEYKCKVSNKGLPAPIEKTISKTKGQPREPQVYTLPPSREEMTKNQVSLTCLVKGFYPSDIAVEWESNGQPENNYKTTPPMLDSDGSFFLYSKLTVDKSRWQQGNVFSCSVMHEALHNHYTQKSLSLSPGK
VL: not shown
notes: also called CR011.1.15.1; CR011 IgG2
- Geo Mean Ratio [1]: 1 ratio
- Geo Mean Ratio (relative to isotype) [2]: 6 ratio
- CR011 Fold Shift (GMR) [3]: 1.3 fold
- surface staining, fold above isotype control mAb background [4]: ≥ 1.5 fold
- Geo Mean Ratio [5]: 1.8 ratio
- Geo Mean Ratio [6]: 4.8 ratio
- CR011 Fold Shift (GMR) [7]: 2.3 fold
- Geo Mean Ratio (relative to isotype) [8]: 7 ratio
- Geo Mean Ratio [9]: 17.3 ratio
- Geo Mean Ratio [10]: 1.5 ratio
- Geo Mean Ratio [11]: 6.9 ratio
- CR011 Fold Shift (GMR) [12]: 1.8 fold
- Geo Mean Ratio (relative to isotype) [13]: 1.9 ratio
- CR011 Fold Shift (GMR) [14]: 2 fold
- Geo Mean Ratio (relative to isotype) [15]: 8 ratio
- Geo Mean Ratio (relative to isotype) [16]: 16.5 ratio
- Geo Mean Ratio (relative to isotype) [17]: 14.1 ratio
- Geo Mean Ratio (relative to isotype) [18]: 4.1 ratio
- CR011 Fold Shift (GMR) [19]: 1.9 fold
- killing of UACC-62 cells with saporin-conjugated secondary antibody (colony count) [20]: > 70%
- Geo Mean Ratio (relative to isotype) [21]: 1 ratio
- CR011 Fold Shift (GMR) [22]: 1.5 fold
- Geo Mean Ratio [23]: 10.7 ratio
- Geo Mean Ratio [24]: 1.8 ratio
